Laboratory results reported in patent publication US20200181239A1.

What was measured:
[1] = molecular target: canine PD-L1 (canine); assay: competition ELISA: biotinylated canine PD-L1 pre-incubated with the inhibitor, then bound to coated canine PD-1, streptavidin-HRP
[2] = molecular target: papain (UniProt P00784)
[3] = molecular target: T1, human Stefin A (wild type human Cystatin A)
T1 chain: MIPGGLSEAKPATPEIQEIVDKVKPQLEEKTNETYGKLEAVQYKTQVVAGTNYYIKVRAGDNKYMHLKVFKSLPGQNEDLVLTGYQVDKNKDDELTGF

canine PD-1 (receptor)
IC50 (read off the curve) [1]: 0.02 µM

human Stefin A (wild type human Cystatin A) (from UniProt P01040 1-98)
IC50 (read off the curve) [2]: 0.001 µM

B1: papain (protein)
chain: IPEYVDWRQKGAVTPVKNQGSCGSCWAFSAVVTIEGIIKIRTGNLNEYSEQELLDCDRRSYGCNGGYPWSALQLVAQYGIHYRNTYPYEGVQRYCRSREKGPYAAKTDGVRQVQPYNEGALLYSIANQPVSVVLEAAGKDFQLYRGGIFVGPCGNKVDHAVAAVGYGPNYILIKNSWGTGWGENGYIRIKRGTGNSYGVCGLYTSSFYPVKN
papain activity assay: fluorescence (excitation 380 nm, emission 460 nm) from the substrate N-Carbobenzyloxy-Phe-Arg-7-amido-4-methylcoumarin [3]: hSteA is a potent inhibitor of papain
